The source of these data is patent US20140087995A1 (published 2014).

Numbered stars: 1 amine (or outer) side, 2 acyl side, 3 side chain; on linkers, the order of the positions; unused ones are H or OH. Bridge positions count the residues as written; N and C are the ends. Side chains are listed from the residue outwards. Ends that are not written are not given here. * marks the point of attachment. C20 diacid = O=C(O)CCCCCCCCCCCCCCCCCCC(=O)*; γGlu = O=C(O)[C@H](CCC(=O)[*:2])N[*:1]

T1: human calcitonin receptor (human, UniProt P30988 25-474)
T1 construct: whole, on cells; Membranes of stably transfected cells; also called hCTR; hCT
T1 sequence (looked up): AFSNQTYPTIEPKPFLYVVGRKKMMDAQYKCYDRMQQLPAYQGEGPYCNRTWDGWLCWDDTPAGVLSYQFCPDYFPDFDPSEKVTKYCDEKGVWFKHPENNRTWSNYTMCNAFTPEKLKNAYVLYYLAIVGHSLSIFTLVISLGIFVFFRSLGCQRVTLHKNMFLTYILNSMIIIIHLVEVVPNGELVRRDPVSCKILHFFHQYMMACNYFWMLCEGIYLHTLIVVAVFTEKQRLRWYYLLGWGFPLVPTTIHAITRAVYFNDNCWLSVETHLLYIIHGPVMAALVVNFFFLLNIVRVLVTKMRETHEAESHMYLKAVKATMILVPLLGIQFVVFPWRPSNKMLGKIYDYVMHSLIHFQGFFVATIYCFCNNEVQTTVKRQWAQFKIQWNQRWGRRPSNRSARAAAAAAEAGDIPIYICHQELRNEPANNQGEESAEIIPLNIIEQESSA

T2: rat calcitonin receptor (rat, UniProt P32214 25-516)
T2 construct: whole, on cells; Membranes of transiently transfected BHK tk'ts 13 cells; also called rCTR; rat calcitonin (a) receptor
T2 sequence (looked up): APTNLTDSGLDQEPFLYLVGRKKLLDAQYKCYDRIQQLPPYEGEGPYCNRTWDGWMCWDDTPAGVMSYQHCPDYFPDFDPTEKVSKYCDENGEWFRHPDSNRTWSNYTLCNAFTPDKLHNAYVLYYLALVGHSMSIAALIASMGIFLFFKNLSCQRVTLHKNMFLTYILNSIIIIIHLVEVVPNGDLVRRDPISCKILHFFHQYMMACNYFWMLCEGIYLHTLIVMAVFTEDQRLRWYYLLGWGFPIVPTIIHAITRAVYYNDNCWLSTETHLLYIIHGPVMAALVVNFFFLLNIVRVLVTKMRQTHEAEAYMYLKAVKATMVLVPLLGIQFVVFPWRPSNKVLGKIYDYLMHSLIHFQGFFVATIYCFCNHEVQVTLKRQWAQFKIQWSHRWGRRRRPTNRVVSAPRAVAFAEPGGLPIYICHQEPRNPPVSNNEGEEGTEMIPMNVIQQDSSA

T3: rat amylin receptor (rat calcitonin receptor + rat RAMP 3) (rat, UniProt P32214 25-516; Q9JJ73 23-147)
T3 construct: whole, on cells; Membranes of transiently transfected BHK tk'ts 13 cells; also called rAmylin-R; rat amylin 3(a) receptor
T3 sequence (looked up) 1: T2 sequence (looked up)
T3 sequence (looked up) 2: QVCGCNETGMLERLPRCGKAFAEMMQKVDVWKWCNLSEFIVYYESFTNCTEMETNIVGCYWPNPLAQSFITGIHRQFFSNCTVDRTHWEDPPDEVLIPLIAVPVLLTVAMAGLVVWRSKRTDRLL

B1: N^ε1-[(4S)-4-carboxy-4-[[(4S)-4-carboxy-4-(19-carboxynonadecanoylamino)butanoyl]amino]butanoyl]-[Glu14,Arg17,Pro21,Pro27,His34,Glu35]-h-amylin (peptide)
peptide: K([γGlu-γGlu-C20 diacid])CNTATCATQRLAEFLRHSSPNFGAIPSSTNVGHETY-NH2
modifications: disulfide 2-7; N-terminus assumed
SMILES: CC[C@H](C)[C@H](NC(=O)[C@H](C)NC(=O)CNC(=O)[C@H](Cc1ccccc1)NC(=O)[C@H](CC(N)=O)NC(=O)[C@@H]1CCCN1C(=O)[C@H](CO)NC(=O)[C@H](CO)NC(=O)[C@H](Cc1c[nH]cn1)NC(=O)[C@H](CCCNC(=N)N)NC(=O)[C@H](CC(C)C)NC(=O)[C@H](Cc1ccccc1)NC(=O)[C@H](CCC(=O)O)NC(=O)[C@H](C)NC(=O)[C@H](CC(C)C)NC(=O)[C@H](CCCNC(=N)N)NC(=O)[C@H](CCC(N)=O)NC(=O)[C@@H](NC(=O)[C@H](C)NC(=O)[C@@H]1CSSC[C@H](NC(=O)[C@@H](N)CCCCNC(=O)CC[C@H](NC(=O)CC[C@H](NC(=O)CCCCCCCCCCCCCCCCCCC(=O)O)C(=O)O)C(=O)O)C(=O)N[C@@H](CC(N)=O)C(=O)N[C@@H]([C@@H](C)O)C(=O)N[C@@H](C)C(=O)N[C@@H]([C@@H](C)O)C(=O)N1)[C@@H](C)O)C(=O)N1CCC[C@H]1C(=O)N[C@@H](CO)C(=O)N[C@@H](CO)C(=O)N[C@H](C(=O)N[C@@H](CC(N)=O)C(=O)N[C@H](C(=O)NCC(=O)N[C@@H](Cc1c[nH]cn1)C(=O)N[C@@H](CCC(=O)O)C(=O)N[C@H](C(=O)N[C@@H](Cc1ccc(O)cc1)C(N)=O)[C@@H](C)O)C(C)C)[C@@H](C)O
notes: Synthetic acylated analogue of human amylin
B2: N^ε1-[(4S)-4-carboxy-4-[[(4S)-4-carboxy-4-(19-carboxynonadecanoylamino)butanoyl]amino]butanoyl]-[Glu14,Arg17,Pro21,Pro27,Pro34,Glu35,Pro37]-h-amylin (peptide)
peptide: K([γGlu-γGlu-C20 diacid])CNTATCATQRLAEFLRHSSPNFGAIPSSTNVGPETP-NH2
modifications: disulfide 2-7; N-terminus assumed
SMILES: CC[C@H](C)[C@H](NC(=O)[C@H](C)NC(=O)CNC(=O)[C@H](Cc1ccccc1)NC(=O)[C@H](CC(N)=O)NC(=O)[C@@H]1CCCN1C(=O)[C@H](CO)NC(=O)[C@H](CO)NC(=O)[C@H](Cc1c[nH]cn1)NC(=O)[C@H](CCCNC(=N)N)NC(=O)[C@H](CC(C)C)NC(=O)[C@H](Cc1ccccc1)NC(=O)[C@H](CCC(=O)O)NC(=O)[C@H](C)NC(=O)[C@H](CC(C)C)NC(=O)[C@H](CCCNC(=N)N)NC(=O)[C@H](CCC(N)=O)NC(=O)[C@@H](NC(=O)[C@H](C)NC(=O)[C@@H]1CSSC[C@H](NC(=O)[C@@H](N)CCCCNC(=O)CC[C@H](NC(=O)CC[C@H](NC(=O)CCCCCCCCCCCCCCCCCCC(=O)O)C(=O)O)C(=O)O)C(=O)N[C@@H](CC(N)=O)C(=O)N[C@@H]([C@@H](C)O)C(=O)N[C@@H](C)C(=O)N[C@@H]([C@@H](C)O)C(=O)N1)[C@@H](C)O)C(=O)N1CCC[C@H]1C(=O)N[C@@H](CO)C(=O)N[C@@H](CO)C(=O)N[C@H](C(=O)N[C@@H](CC(N)=O)C(=O)N[C@H](C(=O)NCC(=O)N1CCC[C@H]1C(=O)N[C@@H](CCC(=O)O)C(=O)N[C@H](C(=O)N1CCC[C@H]1C(N)=O)[C@@H](C)O)C(C)C)[C@@H](C)O
notes: as for B1
B3: N^ε1-[(4S)-4-carboxy-4-[[(4S)-4-carboxy-4-(19-carboxynonadecanoylamino)butanoyl]amino]butanoyl]-[Glu14,Arg17,Pro21,Pro27,Pro34,His35]-h-amylin (peptide)
peptide: K([γGlu-γGlu-C20 diacid])CNTATCATQRLAEFLRHSSPNFGAIPSSTNVGPHTY-NH2
modifications: disulfide 2-7 (inferred)
notes: as for B1
B4: N^ε1-[(4S)-4-carboxy-4-[[(4S)-4-carboxy-4-(19-carboxynonadecanoylamino)butanoyl]amino]butanoyl]-[Glu14,Arg17,Pro21,Pro31,Pro34,Glu35]-h-amylin (peptide)
peptide: K([γGlu-γGlu-C20 diacid])CNTATCATQRLAEFLRHSSPNFGAILSSTPVGPETY-NH2
modifications: disulfide 2-7
notes: as for B1
B5: N^ε1-[(4S)-4-carboxy-4-[[(4S)-4-carboxy-4-(19-carboxynonadecanoylamino)butanoyl]amino]butanoyl]-[Glu14,Arg17,Pro21,Pro27,Pro34,Arg35]-h-amylin (peptide)
peptide: K([γGlu-γGlu-C20 diacid])CNTATCATQRLAEFLRHSSPNFGAIPSSTNVGPRTY-NH2
modifications: disulfide 2-7; N-terminus assumed
SMILES: CC[C@H](C)[C@H](NC(=O)[C@H](C)NC(=O)CNC(=O)[C@H](Cc1ccccc1)NC(=O)[C@H](CC(N)=O)NC(=O)[C@@H]1CCCN1C(=O)[C@H](CO)NC(=O)[C@H](CO)NC(=O)[C@H](Cc1c[nH]cn1)NC(=O)[C@H](CCCNC(=N)N)NC(=O)[C@H](CC(C)C)NC(=O)[C@H](Cc1ccccc1)NC(=O)[C@H](CCC(=O)O)NC(=O)[C@H](C)NC(=O)[C@H](CC(C)C)NC(=O)[C@H](CCCNC(=N)N)NC(=O)[C@H](CCC(N)=O)NC(=O)[C@@H](NC(=O)[C@H](C)NC(=O)[C@@H]1CSSC[C@H](NC(=O)[C@@H](N)CCCCNC(=O)CC[C@H](NC(=O)CC[C@H](NC(=O)CCCCCCCCCCCCCCCCCCC(=O)O)C(=O)O)C(=O)O)C(=O)N[C@@H](CC(N)=O)C(=O)N[C@@H]([C@@H](C)O)C(=O)N[C@@H](C)C(=O)N[C@@H]([C@@H](C)O)C(=O)N1)[C@@H](C)O)C(=O)N1CCC[C@H]1C(=O)N[C@@H](CO)C(=O)N[C@@H](CO)C(=O)N[C@H](C(=O)N[C@@H](CC(N)=O)C(=O)N[C@H](C(=O)NCC(=O)N1CCC[C@H]1C(=O)N[C@@H](CCCNC(=N)N)C(=O)N[C@H](C(=O)N[C@@H](Cc1ccc(O)cc1)C(N)=O)[C@@H](C)O)C(C)C)[C@@H](C)O
notes: Synthetic acylated analogue of human amylin; also called compound 110
B6: N^ε1-[(4S)-4-carboxy-4-[[(4S)-4-carboxy-4-(19-carboxynonadecanoylamino)butanoyl]amino]butanoyl]-[Glu14,Arg17,Pro21,Pro27,Pro34,Phe37]-h-amylin (peptide)
peptide: K([γGlu-γGlu-C20 diacid])CNTATCATQRLAEFLRHSSPNFGAIPSSTNVGPNTF-NH2
modifications: disulfide 2-7; N-terminus assumed
SMILES: CC[C@H](C)[C@H](NC(=O)[C@H](C)NC(=O)CNC(=O)[C@H](Cc1ccccc1)NC(=O)[C@H](CC(N)=O)NC(=O)[C@@H]1CCCN1C(=O)[C@H](CO)NC(=O)[C@H](CO)NC(=O)[C@H](Cc1c[nH]cn1)NC(=O)[C@H](CCCNC(=N)N)NC(=O)[C@H](CC(C)C)NC(=O)[C@H](Cc1ccccc1)NC(=O)[C@H](CCC(=O)O)NC(=O)[C@H](C)NC(=O)[C@H](CC(C)C)NC(=O)[C@H](CCCNC(=N)N)NC(=O)[C@H](CCC(N)=O)NC(=O)[C@@H](NC(=O)[C@H](C)NC(=O)[C@@H]1CSSC[C@H](NC(=O)[C@@H](N)CCCCNC(=O)CC[C@H](NC(=O)CC[C@H](NC(=O)CCCCCCCCCCCCCCCCCCC(=O)O)C(=O)O)C(=O)O)C(=O)N[C@@H](CC(N)=O)C(=O)N[C@@H]([C@@H](C)O)C(=O)N[C@@H](C)C(=O)N[C@@H]([C@@H](C)O)C(=O)N1)[C@@H](C)O)C(=O)N1CCC[C@H]1C(=O)N[C@@H](CO)C(=O)N[C@@H](CO)C(=O)N[C@H](C(=O)N[C@@H](CC(N)=O)C(=O)N[C@H](C(=O)NCC(=O)N1CCC[C@H]1C(=O)N[C@@H](CC(N)=O)C(=O)N[C@H](C(=O)N[C@@H](Cc1ccccc1)C(N)=O)[C@@H](C)O)C(C)C)[C@@H](C)O
notes: as for B1

The first assay concerns the target T1, human calcitonin receptor. The assay is described as follows: ratio of IC50 on human calcitonin receptor to IC50 on human amylin receptor (reference m42), SPA competition. The method, boiled down: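 Competition binding by SPA with cell membranes (35 ng/μL) and SPA beads in 50 mM Hepes pH 7.4 with 1 mM CaCl2, 5 mM MgCl2, 0.1% OA and 0.02% Tween20. Incubated 120 min at 25 °C with shaking, then counted.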
As for B1, the “Ratio hCT/hAmylin binding” value came to 29.1.
Same read-out and setting: next, B2: 0.4; B3: 27.3.
On the same count and under the same terms, next, B4: 22.6; B5: 53.6.
B6: the “Ratio hCT/hAmylin binding” value was 18.

For another assay, the target named is T2, rat calcitonin receptor. Briefly: SPA competition with 125I-calcitonin on membranes of BHK tk'ts 13 cells with rat calcitonin receptor (Assay VIII).
With B1, the IC50 stood at 498 nM.
For the molecule B2, the IC50 amounted to 1.61 nM.
For B3, the IC50 worked out at 21 nM.
On the same count and under the same terms, next, B4: 33.5 nM; B5: 38.3 nM.
On the same count and under the same terms, next, B6: 23.4 nM.

A further assay addresses T2, rat calcitonin receptor. The assay is described as follows: ratio of IC50 on rat calcitonin receptor to IC50 on rat amylin receptor (reference m40).
Consider B1, for which the “Ratio rCT/rAmylin binding” value came to 159.
For B2, the “Ratio rCT/rAmylin binding” value was found to be 10.6.
Still for that read-out and setting: next, B3: 73; B4: 74.7.
The same measure, in the same setting: next, B5: 113.
As for B6, the “Ratio rCT/rAmylin binding” value worked out at 114.

The next assay deals with T3, rat amylin receptor (rat calcitonin …). Briefly: SPA competition with 125I-rat amylin on membranes of BHK tk'ts 13 cells with rat calcitonin receptor + rat RAMP3 (Assay VI).
For the molecule B1, the IC50 was 3.14 nM.
B2: the 50% inhibitory concentration (IC50) came out at 0.152 nM.
B3: the half-inhibitory concentration (IC50) came to 0.288 nM.
For the molecule B4, the half-maximal inhibitory concentration (IC50) worked out at 0.449 nM.
The same measure, in the same setting: next, B5: 0.339 nM; B6: 0.205 nM.
